Results reported in patent US10047341B2, “Generation of keratinocytes from pluripotent stem cells and maintenance of keratinocyte cultures” (FUJIFILM Cellular Dynamics, Inc., priority 2014, dated 2018).

B1: BMP4: growth factor BMP4, neuronal fate suppressor, medium supplement (protein, UniProt P12644 293-408, looked up)
Bone morphogenetic protein 4: SPKHHSQRARKKNKNCRRHSLYVDFSDVGWNDWIVAPPGYQAFYCHGDCPFPLADHLNSTNHAIVQTLVNSVNSSIPKACCVPTELSAISMLYLDEYDKVVLKNYQEMVVEGCGCR
B2: FGF7: fibroblast growth factor FGF7 (protein, UniProt P21781 32-194, looked up)
Fibroblast growth factor 7: CNDMTPEQMATNVNCSSPERHTRSYDYMEGGDIRVRRLFCRTQWYLRIDKRGKVKGTQEMKNNYNIMEIRTVAVGIVAIKGVESEFYLAMNKEGKLYAKKECNEDCNFKELILENHYNTYASAKWTHNGGEMFVALNQKGIPVRGKKTKKEQKTAHFLPMAIT

Legend:
[1] = system: primary human keratinocytes; experiment: Long-term culture of primary keratinocytes (population doubling); conditions: niacinamide 3 mM, BMP4 0.5 ng/mL as components of KCM4
Experimental: Keratinocytes were maintained in the indicated medium and passaged every 4-5 days (at ˜80% confluence). For passage, keratinocytes were incubated with a 0.1% Trypsin in Versene solution at 37° C. for 5 minutes. The trypsin was neutralized with 0.5 mg/mL of trypsin inhibitor. The cells were centrifuged at 1200 rpm for 4 min. Cells were counted with a Cellometer (Nexcelom). Cells (25,000-50,000) were plated per well of 6-well plates in the indicated keratinocyte culture media. Media was changed every other day.
Cells were maintained by serial passage at ˜80% confluence until senescence. The total number of cell doublings for each passage was calculated using the following formula: 3.32 log(N/No). Where No refers to the number of cells plated at the beginning of each passage and N is the number of cells recovered at the end of each passage.

human ESC/iPSCs = experiment: iKCs derivation from human ESC/iPSCs: critical medium components; type: cell-based; conditions: Passage 0, Day 14 differentiation culture, anti-K14 immunofluorescence

| Molecule | life span and stemness of primary keratinocytes in culture [1] | life span and stemness of primary keratinocytes in culture ([1]; listed as BMP-4) | K14 expression with different fibroblast growth factors (human ESC/iPSCs) |
| --- | --- | --- | --- |
| B1 | maintained the stemness of primary keratinocyte stem cells in culture | extend the life span of primary keratinocytes in culture |  |
| B2 |  |  | did not promote homogeneous K14 expression |
